Test results reported in patent publication US20070003549A1 (published 2007).
Residue numbers refer to the chain shown, from its start.

B1: IgG-like format No. 10 (DOM15-26 VH on CH / DOM16-52 VH on CK) (bispecific antibody, V domains shown)
V domain 1: EVQLLESGGGLVQPGGSLRLSCAASGFTFGAYPMMWVRQAPGKGLEWVSEISPSGSYTYYADSVKGRFTISRDNSKNTLYLQMNSLRAEDTAVYYCAKDPRKFDYWGQGTLVTVSS
V domain 2: EVQLLESGGGLVQPGGSLRLSCAASGFTFAEQPMTWARQAPGKGLEWVSSISSFGDLTYYADSVKGRFTISRDNSKNTLYLQMNSLRAEDTAVYYCAKGVYRISRFDYWGQGTLVTVSS
notes: IgG-like format; also called IgG 10
B2: IgG-like format No. 19 (DOM15-26 VH on CH / Dummy VK on CK) (antibody, V domains shown, not shown: a dimerising Fc or GST)
VH: B1 V domain 1
notes: IgG-like format; also called IgG 19
B3: TAR15-27 (other)
VH: EVQLLESGGGLVQPGGSLRLSCAASGFTFQFYKMGWVRQAPGKGLEWVSSISSVGDATYYADSVKGRFTISRDNSKNTLYLQMNSLRAEDTAVYYCAKMGGGPPTYVVYFDYWGQGTLVTVSS
notes: Human dAb, VH single variable domain
B4: TAR15-6 (other)
VH: EVQLLESGGGLVQPGGSLRLSCAASGFTFHLYDMMWVRQAPGKGLEWVSFIGGDGLNTYYADSVKGRFTISRDNSKNTLYLQMNSLRAEDTAVYYCAKAGTQFDYWGQGTLVTVSS
notes: as for B3
B5: TAR15-8 (other)
VH: EVQLLESGGGLVQPGGSLRLSCAASGFTFQWYPMWWVRQAPGKGLEWVSLIEGQGDRTYYADSVKGRFTISRDNSKNTLYLQMNSLRAEDTAVYYCAKAGDRTAGSRGNSFDYWGQGTLVTVSS
notes: as for B3
B6: TAR15-29 (other)
VH: EVQLLESGGGLVQPGGSLRLSCAASGFTFGEYGMYWVRQAPGKGLEWVSSISERGRLTYYADSVKGRFTISRDNSKNTLYLQMNNLRAEDTAVYYCAKSALSSEGFSRSFDYWGQGTLVTVSS
notes: as for B3
B7: TAR15-7 (other)
VH: EVQLLESGGGLVQPGGSLRLSCAASGFTFNKYPMMWVRQAPGKGLEWVSEISPSGQDTYYADSVKGRFTISRDNSKNTLYLQMNSLRAEDTAVYYCAKNPQILSNFDYWGQGTLVTVSS
notes: as for B3
B8: TAR15-30 (other)
VH: EVQLLESGGGLVQPGGSLRLSCAASGFTFSDYAMYWVRQAPGKGLEWVSSITARGFITYYADSVKGRFTISRDNSKNTLYLQMNSLRAEDTAVYYCAKSGFPHKSGSNYFDYWGQGTLVTVSS
notes: as for B3
B9: TAR15-23 (other)
VH: EVQLLESGGGLVQPGGSLRLSCAASGFTFKAYEMGWVRQAPGKGLEWVSGISPNGGWTYYADSVKGRFTISRDNSKNTLYLQMNSLRAEDTAVYYCAKESISPTPLGFDYWGQGTLVTVSS
notes: as for B3
B10: TAR15-24 (other)
VH: EVQLLESGGGLVQPGGSLRLSCAASGFTFTGYEMGWVRQAPGKGLEWVSYISRGGRWTYYADSVKGRFTISRDNSKNTLYLQMNSLRAEDTAVYYCAKSDTMFDYWGQGTLVTVSS
notes: as for B3
B11: TAR15-25 (other)
VH: B10 VH with T30S, G31A, Y50F, R53G, S99Y, D100S, T101E, M102D
notes: as for B3
B12: TAR15-5 (other)
VH: EVQLLESGGGLVQPGGSLRLSCAASGFTFRLYDMVWVRQAPGKGLEWVSYISSGGSGTYYADSVKGRFTISRDNSKNTLYLQMNSLRAEDTAVYYCAKAGGRASFDYWGQGTLVTVSS
notes: as for B3

These binders were tested against T1, VEGF-165 (human, UniProt P15692-4 27-191) (assay: cell-based or functional assay).
T1 sequence (P15692 other isoform, or with tags, fused parts or gaps limits assumed): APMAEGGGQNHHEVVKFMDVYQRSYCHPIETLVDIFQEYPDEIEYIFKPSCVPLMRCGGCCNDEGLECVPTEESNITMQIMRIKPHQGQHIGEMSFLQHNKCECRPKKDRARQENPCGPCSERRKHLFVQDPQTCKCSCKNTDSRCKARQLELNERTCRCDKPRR

| VEGF (bioassay) ND50 | Binder |
| --- | --- |
| 0.2 nM | B1 |

The binders below were run against T1, VEGF-165 (assay: VEGF RBA (ELISA): inhibition of VEGF binding to VEGF receptor (R1 or R2 not specified); IgG-like format).

| IC50 | Binder |
| --- | --- |
| 0.05 nM | B1 |
| 4.8 nM | B2 |

What follows are binders tested against T1, VEGF-165 (assay: supernatant VEGFR2 RBA (ELISA); + = more than 50% reduction of VEGF binding to VEGF R2/Fc; dAb assayed at 50 nM).

| binding result | Binder |
| --- | --- |
| binds | B3 |
| binds | B4 |
| binds | B5 |
| binds | B6 |
| binds | B7 |
| binds | B8 |
| binds | B9 |
| binds | B10 |
| binds | B11 |
| binds | B12 |
